Assay [1] deals with GFAP purified from human brain (human) (UniProt P14136). Kind of assay: chemiluminescent sandwich ELISA; GFAP-2 capture, HRP-GFAP-6 detection; GFAP standard 320 pg/ml. A general note: In an ELISA, binding on a coated surface is turned into a signal by an enzyme label.
For assay [2] the target is unchanged. As to the kind of experiment: chemiluminescent sandwich ELISA; GFAP-2 capture, HRP-GFAP-6 detection; GFAP standard 80 pg/ml.
The target is the same in assay [3]. As to the kind of experiment: chemiluminescent sandwich ELISA; GFAP-2 capture, HRP-GFAP-6 detection; GFAP standard 40 pg/ml.
The target is the same in assay [4]. Kind of assay: chemiluminescent sandwich ELISA; GFAP-2 capture, HRP-GFAP-6 detection; GFAP standard 10 pg/ml.
Assay [5] shares this target. As to the kind of experiment: chemiluminescent sandwich ELISA; GFAP-2 capture, HRP-GFAP-6 detection; GFAP standard 640 pg/ml.
For assay [6] the target is unchanged. As to the kind of experiment: chemiluminescent sandwich ELISA; GFAP-2 capture, HRP-GFAP-6 detection; GFAP standard 20 pg/ml.
For assay [7] the target is unchanged. As to the kind of experiment: chemiluminescent sandwich ELISA; GFAP-2 capture, HRP-GFAP-6 detection; GFAP standard 160 pg/ml.

GFAP purified from human brain (human), sequence (P14136 whole entry): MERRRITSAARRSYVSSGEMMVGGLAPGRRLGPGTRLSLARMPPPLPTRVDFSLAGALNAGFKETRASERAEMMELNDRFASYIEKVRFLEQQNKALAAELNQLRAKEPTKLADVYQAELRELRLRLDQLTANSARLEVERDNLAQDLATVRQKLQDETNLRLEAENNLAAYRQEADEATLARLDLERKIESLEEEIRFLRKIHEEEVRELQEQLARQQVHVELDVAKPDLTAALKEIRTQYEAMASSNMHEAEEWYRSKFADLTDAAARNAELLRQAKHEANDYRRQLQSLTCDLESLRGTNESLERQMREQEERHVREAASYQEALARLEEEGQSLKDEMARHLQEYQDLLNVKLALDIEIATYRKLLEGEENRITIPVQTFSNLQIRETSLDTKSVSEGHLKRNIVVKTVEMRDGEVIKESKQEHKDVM

B1: GFAP-6 (antibody, V domains shown)
VH: EVQLQQSGAEFVKPGASVKLSCTASGFNIKDTDMHWVRQRPEQGLESIGLIDPAIGNTKYDPKFQGKATITADTSSNAAYLQLSSLTSEDTAVYYCARSDRYLAWFAYWGQGTLVTVSA
VL: DIVMTQSPATLSVTPGDRVSLSCRASQSISDFLHWYQQKSHGSPRLLIKYSSQSISGIPSRFSGSGSGSDFTLSINSVEPEDVGVYYCQNGHTFPYTFGGGTKLEIK
Turning to B1, the Relative Light Unit (rlu) in assay [1] came to 487000 rlu; in assay [2] it was 72700 rlu; in assay [3] it was 22700 rlu; in assay [4], 3640 rlu; in assay [5], 1.12e+06 rlu; in assay [6], 7420 rlu. In addition, the Relative Light Unit (rlu) in assay [7] turned out to be 208000 rlu.
